One block for each binder: values may come before it.
How the values were obtained:
[1] = target: human HMGB1 protein (human) (UniProt P09429); test: SPR, Biacore T100, antibody immobilized on chip, human HMGB1 as analyte
human disulfide HMGB1 [2] = target: T1, human disulfide HMGB1 (human, UniProt P09429 1-215, disulfide form (ds-HMGB1) as printed; the cysteines involved are not stated); test: SPR, antibody after against before 6-month storage at 4 C
T1 construct: also called human dsHMGB1; ds-HMGB1
T1 sequence (looked up): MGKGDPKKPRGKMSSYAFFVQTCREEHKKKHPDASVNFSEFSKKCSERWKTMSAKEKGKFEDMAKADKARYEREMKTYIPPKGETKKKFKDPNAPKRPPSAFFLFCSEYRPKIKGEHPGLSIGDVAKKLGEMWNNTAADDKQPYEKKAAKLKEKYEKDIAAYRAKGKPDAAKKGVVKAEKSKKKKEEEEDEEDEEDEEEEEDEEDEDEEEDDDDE

human reduced HMGB1 [3] = target: T2, human reduced HMGB1 (human, UniProt P09429 1-215, reduced form as printed); test: SPR as in Example 1; unit inferred; human reduced HMGB1
T2 sequence (looked up): T1 sequence (looked up)

human reduced HMGB1 [4] = target: T2, human reduced HMGB1; test: ELISA, saturation curve: concentration of bound antibody against concentration of added antibody, on human reduced HMGB1
human disulfide HMGB1 [5] = target: T1, human disulfide HMGB1; test: SPR as in Example 1; unit inferred; human dsHMGB1; before storage
human disulfide HMGB1 [6] = target: T1, human disulfide HMGB1; test: ELISA, saturation curve: concentration of bound antibody against concentration of added antibody, on human dsHMGB1
human disulfide HMGB1 [7] = target: T1, human disulfide HMGB1; test: SPR, antibody after 6-month storage at 4 C; unit inferred; after storage for 6 months at 4° C

Kd [1]: 1.95 nM
B1: mouse monoclonal antibody 2C8C (antibody, from another filing, V domains shown)
VH: QVQLQQSGPELVKPGASVKLSCKASGYTFTDYTIHWVKQSPGQGLEWIGWIYPGSGNTKYNDKFKGKATMTADKSSSTAYMQLSSLTSEDSAVYFCARGFAYWGQGTLVTVSA
VL: DIVLTQSPATLSVTPGDSVSLSCRASQSISNNLHWYQQKSHESPRLLIKYASQSISGIPSRFSGSGSGTDFTLSINSVETEDFGMYFCQQTNSWPLTFGAGTKLELK

fold increase of KD after storage against before storage (human disulfide HMGB1 [2]): ~2.5 fold
Kd (human reduced HMGB1 [3]): 15100 nM
Kd (human reduced HMGB1 [4]): 6880 nM
Km (human reduced HMGB1 [4]): 4.34e-09 M (from the axes; none beside the number)
Kd (human disulfide HMGB1 [5]): 0.0144 nM
Kd (human disulfide HMGB1 [6]): 0.0549 nM
Kd (human disulfide HMGB1 [7]): 0.0351 nM
B2: human monoclonal antibody #129-L2 (antibody, human IgG1, kappa, V domains shown)
VH: EVQLLESGGGLVQPGGSLRLSCAASGFTFSSYAMSWVRQAPGKGLEWVSDISGSGGSTYYADSVKGRFTISRDNSKNTLYLQMNSLRAEDTAVYYCARGYGMDVWGQGTMVTVSS
VL: DIQMTQSPSSLSASVGDRVTITCRASQSVTNYLAWYQQKPGKAPKLLIYGASILETGVPSRFSGSGSGTDFTLTINSLQPEDFATYYCLQHASTPLTFGQGTKLEIKT
